# From patent publication US20220220176
# Test system: thrombin-cleavable prodrug of human NK1
# Sequence (chain, as listed by the source): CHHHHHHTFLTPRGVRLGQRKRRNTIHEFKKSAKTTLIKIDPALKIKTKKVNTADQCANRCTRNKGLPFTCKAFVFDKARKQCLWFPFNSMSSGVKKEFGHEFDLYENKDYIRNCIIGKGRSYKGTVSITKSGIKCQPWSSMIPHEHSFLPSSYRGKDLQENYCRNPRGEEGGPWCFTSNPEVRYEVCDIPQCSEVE
substance,measurement,value
thrombin (Thrombin from human plasma; Sigma-Aldrich Co. LLC),"cleavage of the protease-sensitive peptide and release of human NK1 (SDS electrophoresis, CBB staining)","The treatment of each prodrug of human NK1 with the corresponding protease (ADAM17 or thrombin) was found to cleave the protease-sensitive peptide contained in the prodrug of human NK1 so that the active form, human NK1, was released."
